From patent US20070082380A1 (ARMAGEN TECHNOLOGIES, published 2007)

Biological target: T1, human insulin receptor extracellular domain (HIR ECD) (human, UniProt P06213 28-956, limits assumed)
T1 construct: extracellular domain
Test: competitive ligand binding assay, displacement of [125I] murine HIRMAb from plated HIR ECD, Scatchard analysis
Protocol: CHO cells permanently transfected with the HIR ECD were grown in serum free media (SFM), and the HIR ECD was purified with a wheat germ agglutinin affinity column.

Ki: 0.63 nM
B1: chimeric HIRMAb (chimeric monoclonal antibody to the human insulin receptor) (antibody, human IgG1, kappa)
heavy: not shown
light: DIQMTQSPSSLSASLGERVSLTCRASQDIGGNLYWLQQGPDGTIKRLIYATSSLDSGVPKRFSGSRSGSDYSLTISSLESEDFVDYYCLQYSSSPWTFGGATKMEIKRTVAAPSVFIFPPSDEQLKSGTASVVCLLNNFYPREAKVQWKVDNALQSGNSQESVTEQDSKDSTYSLSSTLTLSKADYEKHKVYACEVTHQGLSSPVTKSFNRGEC
notes: chimeric human IgG1/kappa
